The chains are these.
T1: GHRH receptor of human pituitary membrane homogenates (human, UniProt Q02643 23-423)
T1 construct: whole, on cells; Native receptor in pituitary membrane homogenates, not intact cells; also called hGH-RH receptor
T1 sequence (looked up): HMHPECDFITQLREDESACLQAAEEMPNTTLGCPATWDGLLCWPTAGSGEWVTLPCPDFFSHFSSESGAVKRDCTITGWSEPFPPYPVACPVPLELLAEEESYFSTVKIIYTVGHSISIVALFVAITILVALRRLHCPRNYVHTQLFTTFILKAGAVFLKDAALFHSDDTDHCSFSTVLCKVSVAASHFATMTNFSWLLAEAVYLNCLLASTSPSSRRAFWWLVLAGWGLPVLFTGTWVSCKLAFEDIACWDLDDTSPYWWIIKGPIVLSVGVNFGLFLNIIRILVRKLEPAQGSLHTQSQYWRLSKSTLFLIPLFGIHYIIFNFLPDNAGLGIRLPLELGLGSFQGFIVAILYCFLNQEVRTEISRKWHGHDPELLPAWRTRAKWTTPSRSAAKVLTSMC

B1: [Dat^1, D-Ala^2, N-Me-Ala^8, Orn^12, Abu^15, Orn^21, Nle^27, Asp^28, Agm^29]hGH-RH(1-29) (peptide)
chain: [Desaminotyrosyl][dA]DAIFT[NMeA]SYR[Orn]VL[Abu]QLSAR[Orn]LLQDI[Nle]D[Agmatine]
SMILES: CCCC[C@H](NC(=O)[C@@H](NC(=O)[C@H](CC(=O)O)NC(=O)[C@H](CCC(N)=O)NC(=O)[C@H](CC(C)C)NC(=O)[C@H](CC(C)C)NC(=O)[C@H](CCCN)NC(=O)[C@H](CCCNC(=N)N)NC(=O)[C@H](C)NC(=O)[C@H](CO)NC(=O)[C@H](CC(C)C)NC(=O)[C@H](CCC(N)=O)NC(=O)[C@H](CC)NC(=O)[C@H](CC(C)C)NC(=O)[C@@H](NC(=O)[C@H](CCCN)NC(=O)[C@H](CCCNC(=N)N)NC(=O)[C@H](Cc1ccc(O)cc1)NC(=O)[C@H](CO)NC(=O)[C@H](C)N(C)C(=O)[C@@H](NC(=O)[C@H](Cc1ccccc1)NC(=O)[C@@H](NC(=O)[C@H](C)NC(=O)[C@H](CC(=O)O)NC(=O)[C@@H](C)NC(=O)CCc1ccc(O)cc1)[C@@H](C)CC)[C@@H](C)O)C(C)C)[C@@H](C)CC)C(=O)N[C@@H](CC(=O)O)C(=O)NCCCCNC(=N)N
B2: [Dat^1, D-Abu^2, Orn^12, Abu^15, Orn^21, Nle^27, Gab^30]hGH-RH(1-30)NH2 (peptide)
chain: [Desaminotyrosyl][dAbu]DAIFTNSYR[Orn]VL[Abu]QLSAR[Orn]LLQDI[Nle]SR[GABA]-NH2
SMILES: CCCC[C@H](NC(=O)[C@@H](NC(=O)[C@H](CC(=O)O)NC(=O)[C@H](CCC(N)=O)NC(=O)[C@H](CC(C)C)NC(=O)[C@H](CC(C)C)NC(=O)[C@H](CCCN)NC(=O)[C@H](CCCNC(=N)N)NC(=O)[C@H](C)NC(=O)[C@H](CO)NC(=O)[C@H](CC(C)C)NC(=O)[C@H](CCC(N)=O)NC(=O)[C@H](CC)NC(=O)[C@H](CC(C)C)NC(=O)[C@@H](NC(=O)[C@H](CCCN)NC(=O)[C@H](CCCNC(=N)N)NC(=O)[C@H](Cc1ccc(O)cc1)NC(=O)[C@H](CO)NC(=O)[C@H](CC(N)=O)NC(=O)[C@@H](NC(=O)[C@H](Cc1ccccc1)NC(=O)[C@@H](NC(=O)[C@H](C)NC(=O)[C@H](CC(=O)O)NC(=O)[C@@H](CC)NC(=O)CCc1ccc(O)cc1)[C@@H](C)CC)[C@@H](C)O)C(C)C)[C@@H](C)CC)C(=O)N[C@@H](CO)C(=O)N[C@@H](CCCNC(=N)N)C(=O)NCCCC(N)=O
B3: [N-Me-Tyr^1, D-Ala^2, Orn^12, Abu^15, Orn^21, Nle^27, Asp^28, Amc^30]hGH-RH(1-30)NH2 (peptide)
chain: [NMeY][dA]DAIFTNSYR[Orn]VL[Abu]QLSAR[Orn]LLQDI[Nle]DR[Aoc]-NH2
modifications: N-terminus assumed
SMILES: CCCC[C@H](NC(=O)[C@@H](NC(=O)[C@H](CC(=O)O)NC(=O)[C@H](CCC(N)=O)NC(=O)[C@H](CC(C)C)NC(=O)[C@H](CC(C)C)NC(=O)[C@H](CCCN)NC(=O)[C@H](CCCNC(=N)N)NC(=O)[C@H](C)NC(=O)[C@H](CO)NC(=O)[C@H](CC(C)C)NC(=O)[C@H](CCC(N)=O)NC(=O)[C@H](CC)NC(=O)[C@H](CC(C)C)NC(=O)[C@@H](NC(=O)[C@H](CCCN)NC(=O)[C@H](CCCNC(=N)N)NC(=O)[C@H](Cc1ccc(O)cc1)NC(=O)[C@H](CO)NC(=O)[C@H](CC(N)=O)NC(=O)[C@@H](NC(=O)[C@H](Cc1ccccc1)NC(=O)[C@@H](NC(=O)[C@H](C)NC(=O)[C@H](CC(=O)O)NC(=O)[C@@H](C)NC(=O)[C@H](Cc1ccc(O)cc1)NC)[C@@H](C)CC)[C@@H](C)O)C(C)C)[C@@H](C)CC)C(=O)N[C@@H](CC(=O)O)C(=O)N[C@@H](CCCNC(=N)N)C(=O)NCCCCCCCC(N)=O
B4: [N-Me-Tyr^1, Abu^2, Orn^12, Abu^15, Orn^21, Nle^27, Gab^30]hGH-RH(1-30)NH2 (peptide)
peptide: [NMeY][Abu]DAIFTNSYR[Orn]VL[Abu]QLSAR[Orn]LLQDI[Nle]SR[GABA]-NH2
modifications: N-terminus assumed
SMILES: CCCC[C@H](NC(=O)[C@@H](NC(=O)[C@H](CC(=O)O)NC(=O)[C@H](CCC(N)=O)NC(=O)[C@H](CC(C)C)NC(=O)[C@H](CC(C)C)NC(=O)[C@H](CCCN)NC(=O)[C@H](CCCNC(=N)N)NC(=O)[C@H](C)NC(=O)[C@H](CO)NC(=O)[C@H](CC(C)C)NC(=O)[C@H](CCC(N)=O)NC(=O)[C@H](CC)NC(=O)[C@H](CC(C)C)NC(=O)[C@@H](NC(=O)[C@H](CCCN)NC(=O)[C@H](CCCNC(=N)N)NC(=O)[C@H](Cc1ccc(O)cc1)NC(=O)[C@H](CO)NC(=O)[C@H](CC(N)=O)NC(=O)[C@@H](NC(=O)[C@H](Cc1ccccc1)NC(=O)[C@@H](NC(=O)[C@H](C)NC(=O)[C@H](CC(=O)O)NC(=O)[C@H](CC)NC(=O)[C@H](Cc1ccc(O)cc1)NC)[C@@H](C)CC)[C@@H](C)O)C(C)C)[C@@H](C)CC)C(=O)N[C@@H](CO)C(=O)N[C@@H](CCCNC(=N)N)C(=O)NCCCC(N)=O
notes: also called Peptide 25503

Square brackets hold non-standard residues; d marks the D form. Ends that are not written are not given here. * marks the point of attachment. Desaminotyrosyl = O=C(CCc1ccc(O)cc1)*; NMeY = CN[C@@H](Cc1ccc(O)cc1)C(=O)O; Agmatine = N=C(N)NCCCCN*; NMeA = CN[C@@H](C)C(=O)O; Nle = CCCC[C@H](N)C(=O)O; Orn = NCCC[C@H](N)C(=O)O; dAbu = CC[C@@H](N)C(=O)O; Abu = CC[C@H](N)C(=O)O; Aoc = NCCCCCCCC(=O)O; GABA = NCCCC(=O)O

The first assay concerns the target T1, GHRH receptor of human pituitary …. As to the kind of experiment: radioligand competition, 125I-JV-1-42 (~0.2 nM) as competitor, human pituitary membrane homogenates. An excerpt: Normal human pituitaries were purchased from the National Hormone and Peptide Program (A. F. Parlow, Los Angeles, County Harbor-UCLA Medical Center, Torrance, Calif.).
For orientation: Loss of bound radioactivity is the signal in a displacement assay; it reports binding, not function.
In the case of B1, the half-inhibitory concentration (IC50) is 0.86 nM and the “Relative affinity (Binding potency) vs JI-38” value is 5.06 fold, JI-38 = 1.
On to B2, for which the half-inhibitory concentration (IC50) was 1.44 nM and the “Relative affinity (Binding potency) vs JI-38” value is 3.02 fold, JI-38 = 1.
On to B3, for which the IC50 came to 1.87 nM and the “Relative affinity (Binding potency) vs JI-38” value is 2.32 fold, JI-38 = 1.
Consider B4, for which the IC50 was 1.18 nM and the “Relative affinity (Binding potency) vs JI-38” value was 3.67 fold, JI-38 = 1.

The next assay concerns the target GHRH receptor of human pituitary membrane homogenates (human) (UniProt Q02643). The assay is described as above.
For “[N-Me-Tyr^1, D-Ala^2, Fpa5^6, Orn^12, Abu^15, Orn^21, Nle^27, Asp^28]hGH-RH(1-29)NH-CH3 (from UniProt P01286 32-60) (peptide)”, the IC50 is 0.87 nM and the Relative affinity (Binding potency) vs JI-38 (fold, JI-38 = 1) stood at 5.
With “[Ac-N-Me-Tyr^1, D-Ala^2, Gln^8, Orn^12, Abu^15, Orn^21, Nle^27, Asp^28, Agm^29]hGH-RH(1-29) (from UniProt P01286 32-60) (peptide)”, the half-inhibitory concentration (IC50) came to 3.44 nM and the Relative affinity (Binding potency) vs JI-38 (fold, JI-38 = 1) worked out at 1.26.
Take “[N-Me-Tyr^1, D-Ala^2, Orn^12, Abu^15, Orn^21, Nle^27, Asp^28, Agm^29]hGH-RH(1-29) (from UniProt P01286 32-60) (peptide)”: the IC50 stood at 1.7 nM and the Relative affinity (Binding potency) vs JI-38 (fold, JI-38 = 1) is 2.56.
On the same counts, the results for “[N-Me-Tyr^1, D-Ala^2, Gln^8, Orn^12, Abu^15, Orn^21, Nle^27, Asp^28, Apa^30]hGH-RH(1-30)NH2 (from UniProt P01286 32-61) (peptide)” are 0.71 nM and 6.12.
On the same counts, the results for “[Dat^1, D-Ala^2, Gln^8, Orn^12, Abu^15, Orn^21, Nle^27, Asp^28, D-Arg^29]hGH-RH(1-29)NH-CH3 (from UniProt P01286 32-60) (peptide)” are 2.74 nM and 1.59.
As for “[N-Me-Tyr^1, D-Ala^2, Orn^12, Abu^15, Orn^21, Nle^27, Gab^30]hGH-RH(1-30)NH2 (from UniProt P01286 32-61) (peptide)”, the IC50 turned out to be 1.07 nM and the Relative affinity (Binding potency) vs JI-38 (fold, JI-38 = 1) was determined as 4.07.
For “[N-Me-Tyr^1, D-Ala^2, Fpa5^6, Orn^12, Abu^15, Orn^21, Nle^27, Gab^30]hGH-RH(1-30)NH-CH3 (from UniProt P01286 32-61) (peptide)” the same measures were 1.56 nM and 2.79.
For “[N-Me-Tyr^1, D-Ala^2, Gln^8, Orn^12, Abu^15, Orn^21, Nle^27, Asp^28, Agm^29]hGH-RH(1-29) (from UniProt P01286 32-60) (peptide)” the same measures were 0.82 nM and 5.3.
On the same counts, the results for “[N-Me-Tyr^1, D-Ala^2, Gln^8, Orn^12, Abu^15, Orn^21, Nle^27, Asp^28]hGH-RH(1-29)NH-CH3 (from UniProt P01286 32-60) (peptide)” are 0.16 nM and 27.2.
With “[N-Me-Tyr^1, D-Ala^2, Fpa5^6, Orn^12, Abu^15, Orn^21, Nle^27, Asp^28, Agm^29]hGH-RH(1-29) (from UniProt P01286 32-60) (peptide)”, the IC50 was 3.05 nM and the Relative affinity (Binding potency) vs JI-38 (fold, JI-38 = 1) is 1.43.
For “[N-Me-Tyr^1, D-Ala^2, Orn^12, Abu^15, Orn^21, Nle^27, Asp^28]hGH-RH(1-29)NH-CH3 (from UniProt P01286 32-60) (peptide)” the same measures were 1.06 nM and 4.1.
For “[Dat^1, D-Ala^2, Gln^8, Orn^12, Abu^15, Orn^21, Nle^27, Asp^28]hGH-RH(1-29)NH-CH3 (from UniProt P01286 32-60) (peptide)” the same measures were 0.55 nM and 7.91.
On the same counts, the results for “[N-Me-Tyr^1, D-Ala^2, Orn^12, Abu^15, Orn^21, Nle^27, Asp^28]hGH-RH(1-29)NH-CH2-CH3 (from UniProt P01286 32-60) (peptide)” are 1.47 nM and 2.96.

One may read the IC50 as the midpoint of a concentration-inhibition curve. Higher therefore signals a need for much substance.

The values above are taken from patent US20140058068A1 (UNIVERSITY OF MIAMI, published 2014).
